From patent US11414646 (QURATIS, dated 2022) come the findings set out here.

The assay has as its target T1, Toll-like receptor 4 (TLR4) of mouse bone marrow-derived dendritic cells (mouse, UniProt Q9QUK6 26-835).
T1 construct: whole, on cells; also called TLR (toll-like receptor)-4
T1 sequence: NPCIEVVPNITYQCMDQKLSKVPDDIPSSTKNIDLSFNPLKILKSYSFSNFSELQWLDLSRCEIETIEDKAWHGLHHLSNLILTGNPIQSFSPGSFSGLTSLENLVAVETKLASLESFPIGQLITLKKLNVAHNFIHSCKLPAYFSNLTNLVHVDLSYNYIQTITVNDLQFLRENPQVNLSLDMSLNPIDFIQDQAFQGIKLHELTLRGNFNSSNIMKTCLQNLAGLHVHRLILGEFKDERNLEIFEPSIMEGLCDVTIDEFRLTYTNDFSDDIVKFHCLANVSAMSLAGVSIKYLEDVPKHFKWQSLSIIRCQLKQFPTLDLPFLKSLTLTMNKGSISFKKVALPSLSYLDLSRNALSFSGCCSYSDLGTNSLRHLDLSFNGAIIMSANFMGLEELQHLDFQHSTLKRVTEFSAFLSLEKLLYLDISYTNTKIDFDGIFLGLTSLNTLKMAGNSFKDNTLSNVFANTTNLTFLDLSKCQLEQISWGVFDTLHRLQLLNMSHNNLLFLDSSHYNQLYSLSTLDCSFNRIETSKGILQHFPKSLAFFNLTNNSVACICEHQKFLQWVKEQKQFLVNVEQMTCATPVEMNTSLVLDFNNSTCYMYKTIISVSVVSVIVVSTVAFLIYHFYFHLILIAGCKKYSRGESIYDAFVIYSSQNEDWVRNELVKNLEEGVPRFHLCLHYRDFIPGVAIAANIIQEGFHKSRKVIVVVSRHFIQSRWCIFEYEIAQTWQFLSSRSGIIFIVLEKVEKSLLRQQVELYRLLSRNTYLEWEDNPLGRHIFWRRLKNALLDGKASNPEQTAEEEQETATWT
Nature of the assay: figure legend for FIGS. 3D-3F: confocal microscopy, FACS and immunoprecipitation.

B1: Recombinant Rv2299c protein (His-tagged, Mycobacterium tuberculosis H37Rv, expressed in E. coli BL21) (ligand)
chain: MNAHVEQLEFQAEARQLLDLMVHSVYSNKDAFLRELISNASDALDKLRIEALRNKDLEVDTSDLHIEIDADKAARTLTVRDNGIGMAREEVVDLIGTLAKSGTAELRAQLREAKNAAASEELIGQFGIGFYSSFMVADKVQLLTRKAGESAATRWESSGEGTYTIESVEDAPQGTSVTLHLKPEDAEDDLHDYTSEWKIRNLVKKYSDFIAWPIRMDVERRTPASQEEGGEGGEETVTIETETLNSMKALWARPKEEVSEQEYKEFYKHVAHAWDDPLEIIAMKAEGTFEYQALLFIPSHAPFDLFDRDAHVGIQLYVKRVFIMGDCDQLMPEYLRFVKGVVDAQDMSLNVSREILQQDRQIKAIRRRLTKKVLSTIKDVQSSRPEDYRTFWTQFGRVLKEGLLSDIDNRETLLGISSFVSTYSEEEPTTLAEYVERMKDGQQQIFYATGETRQQLLKSPHLEAFKAKGYEVLLLTDPVDEVWVGMVPEFDGKPLQSVAKGEVDLSSEEDTSEAEREERQKEFADLLTWLQETLSDHVKEVRLSTRLTESPACLITDAFGMTPALARIYRASGQEVPVGKRILELNPSHPLVTGLRQAHQDRADDAEKSLAETAELLYGTALLAEGGALEDPARFAELLAERLARTL
notes: also called Rv2299c (His); HSP90 family protein
On to B1, for which the binding result is on record as “binds”.
